Measured values published in the nanobody polyreactivity screen of Harvey et al. (2022).

Assay: yeast display, Sf9 membrane polyspecificity reagent, FACS + sequencing; frameworks hold sequencing errors
Outline: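 Nanobodies came from a synthetic yeast display library in Saccharomyces cerevisiae BJ5465, induced with galactose for 36–48 hours and stained for 1 hour at 4 °C with 10% biotinylated, detergent-solubilized Sf9 membrane reagent. Cells were enriched on streptavidin microbeads and then FACS-sorted, with low and high (top ~1%) gates set on anti-HA fluorescence for expression and streptavidin fluorescence for reagent binding. Each polyreactivity label reflects the gate a clone came from. Genes were amplified by colony PCR, sequenced by MiSeq 2 × 250 and filtered by CDR length.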

| Sequence | polyreactivity (PSR sort gate) |
| --- | --- |
| QVQLVESGGGLVQAGGSLRLSCAASGSILTFYAMGWYRQAPGKERELVAAITWRGGSTYYAYSVKGRFTISRDNAKNTVYLQMNSLKPEDTAVYYCAAEQVGYYLNWRDYWGQGTQVTVSS | high polyreactivity |
| QVQLVESGGGLVQAGGSIRLSCAASGRTFGQNPMGWYRQAPGKERELVAVITRGGSTNYADSVKGRFTISRDNAKNTVYLQMNSLKPEDTAVYYCAADYTAYGYDYWGQGTQVTVSS | low polyreactivity |
| QVQLVESGGGLVQAGGSLRLSCAASGYTFASYTMGLYRQAPGKERELVATISRGGGRTYYADSVKGRFTISRDNAKNTVYLQMNSLKPEDTAVYYCATRLYPHQYYYWGQGTQVTVSS | high polyreactivity |
| QVQLVESGGGLVQAGGSLRLSCAASGFIFRVYGMGCYRQATAKERELVAAMTGGCGSTYYADSVKGRFTISRDNAKNTVYLQMNSLKPEDTAVYYCAAVRYSGVRYRYGIYSDTMDYWGQGTQVTVSS | high polyreactivity |
| QVQLVESGGGLVQAGGSLRLSCAASGITFGSNAMGWYRQAPGKERELVAAIRYSTGSTYYADSVKGRFTISRDNAKNTVYLQMNRLKPEDTAVYYCAKGKNRYTWYGMGYWGQGTQVTVSS | high polyreactivity |
| QVQLVESGGGLVQAGGSLRLSCAASGSTFVTYAMGWYRQAPGKERELVAAISRSGGSTYYADSVKGRFTISRDNAKNTVYLQMNSLKPEDTAVYYCAAVIYPYYSYAHRYDYWGQGTQVTVSS | low polyreactivity |
| QVQLVESGGGLVQAGGSHRLSCAASGRLFRYYDMGWYRQAPGKERELVARISSTGRTYADSVMGRFTISRDNAKNTVYLQMNSLKPVDTAVYYCAALFHTRGHSKYDYWGQGTQVTVSS | high polyreactivity |
| QVQLVESGGGLVQAGGSLRLTCAASGSIFEYNGMGWYRQAPGKERELVAAITTTGTTDYADSVKGRFTISRDNAKNTVYLQMNSLKPEDTAVDYCAAEYTYYYTGEYDYWGQGTQVTVSS | low polyreactivity |
| QVQLVESGGGLVQAGGSLRLSCAASGNIFTKYAMGWYRQAPGKERELVAAITWSGGSTYYADSVKGRFTISRDNAKNTVDLQMNILKPEDTAVYYCATAHVFRRDKPYDYWGQGTQVTVSS | high polyreactivity |
| QDQLVESGGGLVQAGGSLRLSCAASGRNFRYYTMGWYRQAPGKERELVAAITRRGGITNYADSVKGRFTISRDNGKNTVYLQMNSLKPEDTAVYYCAAKYVSQCYDYWGQGTQVTVSS | high polyreactivity |
| QVQLVESGGGLVQAGGSLRLSCAASGLTFHPYDMGWYRQAPGKERELVAAISSRGTSTYYADSVKGRFTISRDNAKNTVYLQMNSLKPEDTAVYYCAARHGPRAEAMYYWGQGSQVTVSS | high polyreactivity |
| QVQLVESGGGLVQAGGSLRLSCAASGFTFWYYAMGWYRQAPGKERELVAAITYTGDRTYYADSVKGRFTISRDNAKNTVYLQMNSLKREDTAVYYCDVYLGIRSGTANDYWGQGTQVTVSS | high polyreactivity |
| QVQLVESVGGLVQAGGSLRLSCAASGRIIRWYAMGWYRQAPGKERELVAAISGSGGSTYYADSVKGRFTISRDNAKNTVYLQMNSLKPEDTAVYYGAAGYYLRRYYYWGQGTQVTVSS | high polyreactivity |
| QVQLVESGGGLVQAGGSLRLSCAASGFTFSLYAMGWYRQAPGKEREMVAAISRIGGRTYYADSVKGRFTISRDNAKNTVYLQMNSLKPEDTAVYYCAARQGYRSYRRYDYWGQGTQVTVSS | high polyreactivity |
| QVQLVESGGGLVQAGGSLRLSCAASGFIFYYYAMGWYRQAPGKERELVAAISSSGTSTYYADSVKGRFTISRDNAKYTVYLQMNSLKPEDTAVYYCAAYSSHREDYWGQGTQVTVSS | high polyreactivity |
| QVQLVESGGGLVQAGGSLRLSCAASGSIFVRYTMGWYRQAPGKETELVAAISWGGGSTYYADSVKGRFTISRDNAKNSVYLQMNSLKPEDTAVYYCNKRYIQLYDYWGQGTKVTVSS | low polyreactivity |
| QVQLVESGGGLVQAGGSLRLSCAASGSIFKSYAMGWYRQAPGKERELVAAISWSGTSTYYADSVKGRFTISRDHAKNTVYLQMNSLKPEDTAVYYCAASGDYGEYGYWGQGTQVTVSS | low polyreactivity |
| QVQLVESGGGLVQAGGSLRLSCAASGLPFRDYAMGWYRQAPGTERELVAAISDGDDSTSYADSVKGRFTSSRDNAKTTGYLQMNSQNPEDTAVYDCAPYLSDPDFLAGIYGLYNYWGQGTQVTVSS | low polyreactivity |
| QVQLVESGGGLVQAGGSLRLSCAASGRIFGFYGMGWYRQAPGKERELVAAITNRVGSTYYADSVKGRFTISRDNAKNTVYLHMHSLKPEDTAVYSCARRSGWWTRMDSWGQGTQVTVSS | high polyreactivity |
| QVQLLESGGGLVQAGGSLRLTCAASGNIFISYAMAWYRQAPGKERELVAAISRSGGSTYYADSVKGRFTISRDNAKNTVYLQMNSLKPEDTAVYYCAAYIGPGRYGSWGQGTQVTVSS | high polyreactivity |
| QVQLVESGGGLVQAGGSLRLSCAASGITFGWYAMGWYRQAPGKERELVASISSSGSTNYADSVKGRFTISRDNAKNTVYLQMNSLKPEDTAVYYCNKDYLLRHYYIYVIEGDYWGQGTQVTVSS | low polyreactivity |
| QVQLVESGGGLVQAGVSLRLSCAASGFIFVSYAMGWYRQAPGIERELVAAIDRIGGITYYADSVKGRFTISRDNAKNTVYLQMNSLKPVDTAVYYCAAAARYATVRVGREYYWGQGTQVTVSS | low polyreactivity |

| Sequence | polyreactivity (PSR sort gate) |
| --- | --- |
| QVQLVESGGGLVQAGGSLRLSCAASGNTFAFNAMGWYRQATGKEREFVAAISYSGVSTYYADSVKGRFTISRDNAKNTVYLQMNSLKPEDTAVYYCAARYGWYKYWYDYWGQGTQVTVSS | high polyreactivity |
| QVQLVESGGGLVQAGGSLRLSCAASGRTFRFTAMGWYRQAPGKERELVAAISFRGGSTYYADSVKGRFTISRDNAKNTVYLQMNSLKPEDTAVYYCAARARTGTYRDMYYWGQGTQVTVSS | high polyreactivity |
| QVQLVESGGGLVQAGGSLRLSCAASGSTFHTYAMGWYRQAPGKERELVASISYGVTTYYADSVKGRFTISRDNAKNTVYLQMNSLKPEDTAVYYCAREGYKWVYLSYGYWGQGTQVTVSS | low polyreactivity |
| QVQLVESGGGLVQAGGSPRLSCAASGRIFGAYAMGWYRQAPGQERELVAGNRSVGSTNYADSVKGRFTISRDNAKNTVYFQMNSLKPEDTAVYYCAARLWHLSYAGQGGDYWGQGTQVTVSS | low polyreactivity |
| QVQLVESGGGLVQAGGSLRLSCAASGSISRFNTMGWYRQAPGKERELVAAITVSGGSTYYADSVKGRFTISRDNAKNTVYLQMNSLKPEDTAVYYCAKEAWRYRLNFRYNYWGQGTQVTVSS | low polyreactivity |
| QVQLVESGRGLVQAGGSLRLSCAASGSTFLYYAMGWSRQAPGKEMELVAVISWSGVSTYYADSVKGRFTISRDNAKTTVYLQMNSLKPEDTAVYYCAAVPVHTGSLYWGFTTGYDYWGQGTQVTVSS | low polyreactivity |
| QVHLVESGGGLVQAGGSLRLSCAASGFIFDYYAMGWYRQAPGKERELVAAITGSGGGTYYADSVKGRFTISRDNAKNTVYLQMNSLKPEDSAVYYCNAYVPYPYSSEVQDYDYWGQCTQVTVSS | high polyreactivity |
| QFQLVESGGGLVQAGGSLRLSCAASGITFQYYAMGWYRQAPGKERDFVAAISWRSGRTYYADSVKGRFTISRDNAKNTVYLQMNSLKPEDTEVYYCAAVVHIQRSTRDYWGQGTQVTVSS | high polyreactivity |
| QDQLVESGGGLVQAGGSLRLSCAASGIIFKYYAMGWYRQAPGKERELVAAITSGGSTNYADSVKGRFTISRDNAKNTVYLQMNSLKPEDTAVYYCAKRFYYRNRFDYWGHGTQVTVSS | low polyreactivity |
| QLQLVESGAGLVQAGGSLRLICAASGSIFKSYAMGWYRQAPGKQMEFVAAISWSGGSTYADSVKGRFTISRDNAKNTVYLQMNSLKPEDTAVYYCNKDDYWFLGFYYWGQGTQVTVSS | low polyreactivity |
| QVQLVESGGGLVQAGGSLRLSCAASGSTFYYNAMGWYRQAPGKERELVAVITLNGGRTSYADSVKGRFTISRDNAKNTVYLQMNSLKPEDTAVYYCAADRYRGYGYWGQGTQVTVSS | low polyreactivity |
| QVQLVESGGGLVQAGGSLRLSCAASGRIFTYYAMGWYRQAPGKERELVAAINWGVVTTYYADSVKGRFTISRDNAKNTVYLQMNSLKPEDSAVYYCAADWFAANYYVNPVSALYYWGQGTQVTVSS | low polyreactivity |
| QVQLVESGGGLVQAGGSLRLSCAASGLTFAGYAMGWYRQAPGKERELVAAISSGGRTNYADSVKGRFTISRDNAKNTVYLHMNSLKPADTAVYYCAARISTHAPHRRLTYEYWGQGTQVTVSS | low polyreactivity |
| QVQLVESGGRLVQAGGSLRLSCAASGSILYIYAMGWYRQAPGKERELVAAISKNSADTYYADSVKGRFTISRDNAKNTVYLQMNSLKPEDTAVYYCAADVVKVAAYNYWGQGTQVTVSS | low polyreactivity |
| QVQLVESGGGLVQAGGSLRLSCAASGFTFVPYAMGWYRQAPGKEREFVATISWSAGRTYYADSVKGRFTISRDNAKNTVYLQMNSLKPEDTAVYYCNARQWCQRYSKVRYDFWGQGTQVTVSS | high polyreactivity |
| QVQLVESGGGLVQAGDSLRLSCAASGFIFYYYTMGWYRQAPGKEREFVAAITYSGGRTYYADSVKGRFTISRDNAKNTVYLQMNSLKPQDTAVYYCADVPRYGPSSRMDYWGQGTQVTVSS | high polyreactivity |
| QVQLVESGGGLVQAGGSLRLSCAASGSTFSRYTMGWYRQAPGKERELVAVITRRGGSTYYADSVKGRFTISRDNAKNTVYLQMNSLKPADTAVYYCAADYKYPIDYGYWGQGTQVTVSS | high polyreactivity |
| QVQLVESGGGLVQAGGSLRLSCAASGRIFYPNAMGWYRQAPGKERELVAAISWSGGSTYYADSVKGRFTISRDNAKNTVYLQMNSLKPEDTAVYYCNAEYRYYQKTPGRYTNVEYDYWGQGTQVTVSS | low polyreactivity |
| QVQLVESGGGLVQAGGSLRLSCAASGSTFYGNMGWYRQAPGKERELVAAITYRGTNTYYADSVKGRFTISRDNAKNTVYLQMNSLKPEDTAVYYCAAEYDVYQGRGRYYGYDYWGQGTQVTVSS | high polyreactivity |
| QVQLVESGGGLVQAGGSLRLSCAASGRTFSSYAMGWYRQAPGKERELVADINRSGGSTYYADSVKGRFTISRDNAKNTVYLQMNSLKPEDTAVYYCNVRIWPWYGYDYWGQGTQVTVSS | low polyreactivity |
| QVQLVESGGGLVQAGGSLRLSCAASGRTFVRNAMGWYRPAPGKERELVAAISSIGDSTYYADSVKGRFTISRDNAKNTVYLQMNSLKPEDTAVYYCAAEWVTSYYNYYHWGQGTQVTVSS | low polyreactivity |
